Assay results published in the DeepSol protein solubility set.

Assay: soluble on expression in E. coli; label from the status in PepcDB or PDB records

Sequence	soluble on expression in E. coli
MTDVVVAGGGLAGLVAARHLAESGRDVTVFEQRSDVGGRVRTVHEDGYTFDRGFQVMFTAYPAAKRELDIEALAPRTFTPGATIASPNHRSVLSDPLRNPSAAPQTLLNTDVRTADKLRLFRLQRELAGVEPVELLSRGGTTIREYLADYGFSKRFVERFAAPFYGGITLDRSLGTDSSIFEYTYKMLSEGEIFVPADGMQAMPRQLADRARSAGATIETDAPVTELETHEGEVTAEVGRETVTAESAVVATDPQTAAELTDIDAIPTEPVGCVTQYFALPTNRAPATGQRIILNATDDRPNTVAPLSAVASEYAPAGMELYSATFLGTPEEDDAELAAEVRAALQSWYPNASFEALELLRTDRVPLSQFAQPPGYRDALPDPTAPEGNAVLAGDYTRWSAIQGALESGKVAADLLRLEHHHHHH	not soluble
MTDWLYRYPKLYPGFLLKRYKRFFADVQLTSGEVVTAHCPNTGPMTGVSKIGSPVQLSQSDNPNRKLAYTLELIQVQEQEPTWVGVNTALPNRVIKLALEKFLFPELRDYTQVKGEVIYGKDKKSRVDFYLTGSEKQSPIYLEVKNTTWTQGNLALFPDTETTRGQKHLRELMEVLPHSRAVMLYFINRGDCPEFAPGDSTDPVYGKLLRQAITVGLEVLPCRFDVSPEGIRYLGLAKLKT	not soluble
MTEAEDFAQLLQKLQNASPALPEGTSSTPTPSSSTGLLPNGKKTKGRVKIKMEYINNKLRRYTTFSKRKTGIMKKAFELSTLTGTQVMLLVASETGHVYTYATPKLQPMISSDTGKAMIQSCLNAPGGDGSDVQPSRTEFTFDSGNGGNGMRKRKMLSDVMSAESSNNSPSMPNFTPFLAPSMAPLFSTFGEDDYNNDESGDDSDSEEASSDIKEEYQGSPTMVKQETTEIDSVTASLQQRIKEAMRQAASNKQAIKKAKITPPSSNMNNAAFLNPFLLQGGANASNLLATAARKGDDAGSLTSNPFLSMGLNLQQLIESAAIASNE	not soluble
MTEFYSDTIGLPKTDPRLWRLRTDELGRESWEYLTPQQAANDPPSTFTQWLLQDPKFPQPHPERNKHSPDFSAFDACHNGASFFKLLQEPDSGIFPCQYKGPMFMTIGYVAVNYIAGIEIPEHERIELIRYIVNTAHPVDGGWGLHSVDKSTVFGTVLNYVILRLLGLPKDHPVCAKARSTLLRLGGAIGSPHWGKIWLSALNLYKWEGVNPAPPETWLLPYSLPMHPGRWWVHTRGVYIPVSYLSLVKFSCPMTPLLEELRNEIYTKPFDKINFSKNRNTVCGVDLYYPHSTTLNIANSLVVFYEKYLRNRFIYSLSKKKVYDLIKTELQNTDSLCIAPVNQAFCALVTLIEEGVDSEAFQRLQYRFKDALFHGPQGMTIMGTNGVQTWDCAFAIQYFFVAGLAERPEFYNTIVSAYKFLCHAQFDTECVPGSYRDKRKGAWGFSTKTQGYTVADCTAEAIKAIIMVKNSPVFSEVHHMISSERLFEGIDVLLNLQNIGSFEYGSFATYEKIKAPLAMETLNPAEVFGNIMVEYPYVECTDSSVLGLTYFHKYFDYRKEEIRTRIRIAIEFIKKSQLPDGSWYGSWGICFTYAGMFALEALHTVGETYENSSTVRKGCDFLVSKQMKDGGWGESMKSSELHSYVDSEKSLVVQTAWALIALLFAEYPNKEVIDRGIDLLKNRQEESGEWKFESVEGVFNHSCAIEYPSYRFLFPIKALGMYSRAYETHTL	soluble
MTEIKYKVITKDAFALPYTIIKAKNQPTKGVIVYIHGGGLMFGKANDLSPQYIDILTEHYDLIQLSYRLLPEVSLDCIIEDVYASFDAIQSQYSNCPIFTFGRSSGAYLSLLIARDRDIDGVIDFYGYSRINTEPFKTTNSYYAKIAQSINETMIAQLTSPTPVVQDQIAQRFLIYVYARGTGKWINMINIADYTDSKYNIAPDELKTLPPVFIAHCNGDYDVPVEESEHIMNHVPHSTFERVNKNEHDFDRRPNDEAITIYRKVVDFLNAITMV	soluble
MTELKDRLQVADKEKWNLTDIYDTIEDWESDFHKIEVLTNELHEFNGNIHDGNSLLAYLTKSEEISSIISLMFAYARLQSDLDTRDTDAQSLVDKVSQLHVKVSAAKSFFSPFLLSVDENTLHTYIEEAEGLQYYKEDLFELYRYKKHVLNKDQEEILSQMGEALSSPQHTYGMLNNADILFGEVTSNDGEKVTLTRGMYAKLIEDESREKRKEAYKAYYKPYVQLKNSIASTLSAAIKNNVTVSKLRKYPSALEKSLFGDMVPKEVYENLIETTKKNIQSLHTYNKLRKEKLNVDELRQYDLSVDLVQGVKQDIPYDNAFDIMIESLAPLGEEYIETLKSFKDKRYIDVRETPGKCSGAYNFGVYGVHPFILLNHHDDLNSLFTLTHECGHGMHTHYSHGYQPRISAHYTIFVAEVASTVNEVLLIHHLLKEAKDANVRNHLVNHFIEKFKGTFFTQIMFAEFEKITHEMAQQGKPLNAQVFSDVYENLFREYNGDSLVFDEEVKYGWARIPHFYRPFYVYKYATGFASAIQIADKLLSGDPNAQKNYLEFLKGGSSDYPLNLLKKAGVDLTTPEPIESALNRFSELVEEFSTL	not soluble
MTENVEYIRVLLKSSQAEVQMLREQNEFRDDLLKMFKVKLEVNALNNLPVRRNLSVEISNLETKKLKTEIAFLKEELGREGKKLTIANTVHEQLKKDLEAEKRNSMFLSELLTFYQNGHQPQLPAEDQFVDFLQTETRSVKEALKEKEEEVKRLLVDMEGKTFQNLTEKGRMEEEMNDAKREAQILRNEMKSLQKNMTAKENELLGYLRDASETHTEMQKDYKIQILELQRRNRILERHLDNIQ	not soluble
MTEPFIVRRETQIAAPRATVFAYLTDPEKILSWMGSDATTEPHPGGLYLLKGIGPRGAAARGAFREVVPVHRLAYTFGWEGGQEVPPGSSLIEIDLIERDGGTLLRMTHSGLPTEEQAAAHAKGWAHYLERLTTAAAGNDPGPDNGVSTKSLEHHHHHH	soluble
MTERILEVNDLHVSFDITAGEVQAVRGVDFYLNKGETLAIVGESGSGKSVTTKAITKLFQGDTGRIKKGEILFLGEDLAKKPENELIKLRGKDISMIFQDPMTSLNPTMQIGKQVMEPLIKHKNYSKAQAKKRALEILNLVGLPNAEKRFKAYPHQFSGGQRQRIVIATALACEPKVLIADEPTTALDVTMQAQILDLMKELQQKIDTAIIFITHDLGVVANIADRVAVMYGGQMVETGDVNEIFYDPKHPYTWGLLSSMPDLSTTNDTPLLAIPGAPPDLLHPPKGDAFARRSQYALDIDFKVEPPWFKVSPTHFVKSWLLDARAPKVELPELVKQRMKPMPNNYEKPLKVERVSFNEK	not soluble
MTETSTVSIASSAIVCVEADIKGEVIIKEGCVVHPFVVFDATKGPIYVGENNIFEEYAVIRNNSDGQPMIIGDWNIFQVHSKSSAKYVGSRNVIGVHAVLEDGCSVSDDCSVGAKCTVFSHQNLEPSVSVYAATNLSRTTKTPNMTSPHQIEFLRKILPSYHHLYGKKKAVATASASAAQ	not soluble
MTFAEYFKNWYIFYKKPKVSKVTLNRYQYTYNVINEYFGNKLLKDITRANYQKFIVKYGQNHSPNTMKMINNCIKACVKNAVYDEEIKKDFTYNIELISNRDNVVQLEHHHHHH	not soluble
MTFAGIDVSKTHLDLALVSNSPKPTRLRFPNSPEGRQALLAALAHHNPAWVALEPTSAYHLPLLKLLAENRLQVALVNPYHLAAFRKAKGERQKTDRQDALLLARYAQVYHEDLRAYTLPPETLRELKALVGYREDLAGRERTILNQMEAAEWAGSKEVLALLQKELACVKGLLGEVEARIQALLATLPEAEVLMALPGVGPQVAAAVLALLPPELWGRAKRAASYAGLIPEREESGKSVERSRLSKKGPPLLRRKLYMGALVAVRHDPEMRAFYHRLLSRGKRKKQALVAVAHKLLRRMMGRLREYYATQLDQGVA	soluble
MTFGAGHLRAAEALIEAVRKKSPEAEITHLDFGAFISKTLNTIVKNTYIELIKHTPRLYGMFYYRTSKIRPQSLIQRFINILGRKEFLDYIKGLNPDVIICTYPVIAGVLGELRFKGVIHAPVVSVVTDYGVHSQYIQRGVDLYIAGCQDVYKDLIAGGIARERIRITGIPVDPKFEEELEHHHHHH	not soluble
MTGNKIHNPLDRNHSELRDKKVSLNDGDPFTIALFGVDSDADRKKKGGGERSDSIMILSINPKTKKTEIVSIPRDTRAEIVGRGTTEKIAHAYAYGGPNMAVKSLEKLMNVPIDHYATIDMDGLHNMIDSIGGVDVVSNDTFTVDGVRFTKGQQTHVNGDQALKFIRSRKEEGAGGDFGRQQRQQIVLEAMANKIASPSSITHFNSLMNEIQNNVKTDLTLGDLNTIRSNYKDANDTINKHQLSGQGGIQSDGLYYFIPSEQSKAESTKLLKDNLELEHHHHHH	soluble
MTGSQFPREELFAPGHRGCAGCGAAIVARLALKAAGKNTIVANATGCLEVMTTPYPETAWRVPWIHVAFENAAAVASGIEGAVVALKRKKGKYGEEKVNVIAFGGDGGTADIGFQALSGAMERGHDMVYIMYDNEAYMNTGVQRSGSTPFMASTTTSPAGSHIRGENRPKKDMPMIMAAHGIPYIATASISYPEDFMNKVKKACEVNGPAFIQVLQPCTTGWGYPAENTVEMGRLAVETGVWPLFEIENGEFKLNYKPLKRKPIEEYLKVQKRYRHLKPEDISVIQETIDMKCDEYGL	not soluble
MTHLLETKNLSVSFGEHHVIKDVNLIVQKGKLISIIGPNGAGKTTLFNLLSGQISPTKGEVYFKGQEITKLSISDRTRLGIGRSFQLTNIFPELTVLENVRLSVQSFVQDYYSFFPSSAKFKQQVGEARRFLKTVLLQEKEHVLAKDLAHGEKRKLELAMLLALKTDVLLLDEPTAGISVEEVPAILQVIENIKKHPESTIVLIEHKMDMVLGLSDHLIVLFHGELLAEGMPEEIMKDERVQSAYLGGLYSGTITSE	not soluble
MTHNGGRHLLEAVTLCGSILTRYKRSNMKLDEAEVRALKELFEKYQDILVDGSPGLPTHASGPMIQPPVTNMVAPYDSPTDTIVKFVEGTINLQRPIVEVLHVMNEHLSLVLRAKNTHVFYVDPVNNLLYDPIHGVAAALDESSPIGKAIVSGERLNVAGTLYIPIISEGMPLGCVLSPCGRADYHASTMLESSLRVISTSLKNIIQAEKLNWNKEKAEAMLRMATQLARDNLEETVLASSIMNTVKSLTESARCSLFLVRGDVLEAHFEDGNVVTIPRGAGIAGYVAQTGETVNIVDAYADDRFNREVDKATGYRTKTILCMPVMYEGTIVAVAQLINKLDLTTESGLRLPRVFGKRDEELFQTFSMFAGASLRNCRINDRLLKEKKKSDVILDVVTVLSNTDIRDVDGIVRHALHGAKKLLNADRSTLFLVDKERNELCSRMADSVAGKEIRFPCGQGIAGTVAASGVGENIQDAYQDPRFNREVDKQLGYRTQTILCEPIILNGEILAVVQLVNKLDTSGEVTVFTEDDRETFRVFSLFAGISINNSHLLEFAVKAGREVMELNEHRATLFNKNVPSRAVKRVTAITKVEREAVLVCELPSFDVTDVEFDLFRARESTDKPLDVAAAIAYRLLLGSGLPQKFGCSDEVLLNFILQCRKKYRNVPYHNFYHVVDVCQTIYTFLYRGNVYEKLTELECFVLLITALVHDLDHMGLNNSFYLKTESPLGILSSASGNTSVLEVHHCNLAVEILSDPESDVFGGLEGAERTLAFRSMIDCVLATDMAKHGSALEAFLASAADQSSDEAAFHRMTMEIILKAGDISNVTKPFDISRQWAMAVTEEFYRQGDMEKERGVEVLPMFDRSKNMELAKGQIGFIDFVAAPFFQKIVDACLQGMQWTVDRIKSNRAQWERVLETRLSTSSGNNSSTR	soluble
MTHVTPFSNPFLLGFETIEKTLRRIGKADETYPAYNIERLHKNDDASHIRITLAVAGFKVNNLNILLDDNQLIIHGKQTDSQNHQYLYRGIAARQFQRTFVLVEGMHVTNAELKNGLLSINLYQPKTKKQMKQIPIKVSNKS	not soluble
